Experimental data published in PMC11519345, “Structural variation of types IV-A1- and IV-A3-mediated CRISPR interference”.
One block for each molecule: values may come before it.

Columns and labels:
[1] = target: Type IV-A3 effector complex (Cas5-Cas8-Cas7-Cas6 crRNP), DinG-free (Klebsiella pneumoniae) (UniProt A0A8G1XN67+A0A7Z7WW72+A0A333ESG5); assay: EMSA; details: crRNA; EMSA: 10 mM HEPES pH 7.5, 150 mM NaCl, 1 nM DNA, on ice then 20 min RT, 6% native PAGE in TBE at 4 C; cryo-EM: 10 uM complex + 15 uM DNA in the same buffer …; scale: fold tighter than type IV-A1 complex on its target
[2] = target: type IV-A1 Cas7 (Csf2) from Pseudomonas oleovorans (Pseudomonas oleovorans); assay: cryo-EM structure; type IV-A1 effector complex (10 µM) reconstituted with bubbled target dsDNA (15 µM) in 10 mM HEPES-Na pH 7.5, 150 mM NaCl, then SEC; particle class without DinG
[3] = target: type IV-A3 Cas7 (Csf2) from Klebsiella pneumoniae (Klebsiella pneumoniae); assay: cryo-EM structure; type IV-A3 effector complex (10 µM) reconstituted with bubbled target dsDNA (15 µM) in 10 mM HEPES-Na pH 7.5, 150 mM NaCl, then SEC; without DinG
[4] = target: T1, Type IV-A1 effector complex (Cas5-Cas8-Cas7-Cas6 crRNP), DinG-free (Pseudomonas oleovorans, UniProt A0A379PL53;A0A379PIR4;A0A379PIR9;A0A379PNK2 1-222;1-240;1-347;1-236); assay: cryo-EM; crRNA; no DinG; 3.0 A; PDB code not assigned in the material (8RC2/8RC3/8RFJ); EMSA: 10 mM HEPES pH 7.5, 150 mM NaCl, 1 nM DNA, on ice then 20 min RT, 6% native PAGE in TBE at 4 C; cryo-EM: 10 uM complex + 15 uM DNA in the same buffer, 10; details: protein: recombinant; tags: His6 C-terminal on Cas8; copies: 1;1;5;1; bubble: non-complementary protospacer, paired 15 nt and 14+ nt ends
T1 sequence 1: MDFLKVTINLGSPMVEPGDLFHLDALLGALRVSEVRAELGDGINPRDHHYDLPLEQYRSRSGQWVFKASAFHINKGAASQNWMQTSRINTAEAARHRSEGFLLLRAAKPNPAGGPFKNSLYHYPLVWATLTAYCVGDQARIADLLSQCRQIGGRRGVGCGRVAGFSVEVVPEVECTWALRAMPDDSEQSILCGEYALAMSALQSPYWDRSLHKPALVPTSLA
T1 sequence 2: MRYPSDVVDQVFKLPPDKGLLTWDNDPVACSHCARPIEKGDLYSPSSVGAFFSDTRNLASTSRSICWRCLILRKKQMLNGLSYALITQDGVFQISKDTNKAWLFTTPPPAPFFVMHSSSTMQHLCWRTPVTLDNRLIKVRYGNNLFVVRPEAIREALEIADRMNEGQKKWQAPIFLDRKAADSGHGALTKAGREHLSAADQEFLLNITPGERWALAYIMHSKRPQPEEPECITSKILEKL
T1 sequence 3: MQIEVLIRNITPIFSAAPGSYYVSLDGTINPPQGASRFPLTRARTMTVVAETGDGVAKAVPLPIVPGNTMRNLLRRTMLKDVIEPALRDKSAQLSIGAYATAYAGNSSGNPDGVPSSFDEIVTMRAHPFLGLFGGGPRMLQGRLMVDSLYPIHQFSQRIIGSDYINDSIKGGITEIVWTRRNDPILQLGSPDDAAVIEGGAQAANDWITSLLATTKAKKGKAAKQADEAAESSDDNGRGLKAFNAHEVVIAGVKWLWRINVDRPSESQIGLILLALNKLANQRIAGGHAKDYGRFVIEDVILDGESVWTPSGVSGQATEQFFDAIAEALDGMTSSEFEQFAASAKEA
T1 sequence 4: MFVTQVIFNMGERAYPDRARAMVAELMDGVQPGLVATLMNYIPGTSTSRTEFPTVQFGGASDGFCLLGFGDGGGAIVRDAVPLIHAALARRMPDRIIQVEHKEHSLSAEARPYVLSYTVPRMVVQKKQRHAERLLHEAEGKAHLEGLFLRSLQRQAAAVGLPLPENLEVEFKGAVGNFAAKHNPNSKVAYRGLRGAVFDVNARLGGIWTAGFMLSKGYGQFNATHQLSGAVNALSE

stoichiometry N [2]: 5
Molecule: type IV-A1 Cas7 (Csf2) from Pseudomonas oleovorans (natural protein)

stoichiometry N [3]: 6
Molecule: type IV-A3 Cas7 (Csf2) from Klebsiella pneumoniae (natural protein)

The remaining lines, values behind:

Molecule: IV-A3 EMSA target, no mismatch
binding signal [1]: 10

B1: Type IV-A1 bubbled target DNA (TS/NTS) for cryo-EM (dsDNA)
DNA 1: CGGTCGGGTCATACGTCGCGTCTCGAATCTGATGCGTAACTTGGATGCTTCGTGCGTGATG
DNA 2: CATCACGCACGAAGACCAAGTCAATGCTTAGTCTAATACCTGCGCTCGTATGACCCGACCG
binding result [4]: binds
